# Test results from paper PMC3507621.
# B1: wild type recombinant N-terminal region of PTX3 (N_PTX3) [human] / mouse TSG-6 (tumor necrosis factor-induced protein 6) [mouse] (parent)
# chain 1: WGFKNGIFHNSIWLEQAAGVYHREARAGRYKLTYAEAKAVCEFEGGRLATYKQLEAARKIGFHVCAAGWMAKGRVGYPIVKPGPNCGFGKTGIIDYGIRLNRSERWDAYCYNPHAKECGGVFTDPKRIFKSPGFPNEYDDNQVCYWHIRLKYGQRIHLSFLDFDLEHDPGCLADYVEIYDSYDDVHGFVGRYCGDELPEDIISTGNVMTLKFLSDASVTAGGFQIKYVTVDPASKSSQAKNTSTTGNKKFLPGRFSHL
# chain 2: ENSDDYDLMYVNLDNEIDNGLHPTEDPTPCACGQEHSEWDKLFIMLENSQMRERMLLQATDDVLRGELQRLREELGRLAESLARPCAPGAPAEARLTSALDELLQATRDAGRRLARMEGAEAQRPEEAGRALAAVLEELRQTRADLHAVQGWATG
# B2: wild type recombinant N-terminal region of PTX3 (N_PTX3) [human] / mouse TSG-6 (tumor necrosis factor-induced protein 6) [mouse] (parent)
# chain 1: B1 chain 2
# chain 2: B1 chain 1
# Assays:
# [1] = variants of: B1; experiment: ELISA; conditions: with mouse TSG-6 (tumor necrosis factor-induced protein 6) [mouse], pH 7.4, PBS with Ca2+ and Mg2+, read off a plot
# [2] = variants of: B2; experiment: competition ELISA (bPTX3 detected with HRP-conjugated streptavidin); conditions: with mouse TSG-6 (tumor necrosis factor-induced protein 6) [mouse], wells coated with TSG-6, read off a plot
# [3] = TSG-6 about 0.38 nM (est. from x axis), parent: 0.29
# [4] = TSG-6 about 1.6 nM (est. from x axis), parent: 0.91
# [5] = TSG-6 about 6.2 nM (est. from x axis), parent: 1.7
# [6] = TSG-6 about 26 nM (est. from x axis), parent: 2.2
# [7] = TSG-6 about 100 nM (est. from x axis), parent: 2.3
Variant,"response [1, 3]","response [1, 4]","response [1, 5]","response [1, 6]","response [1, 7]","screen value ([2]; competitor about 0.24 nM (est. from x axis), parent: 99) [%]","screen value ([2]; competitor about 1.2 nM (est. from x axis), parent: 90) [%]","screen value ([2]; competitor about 12 nM (est. from x axis), parent: 82) [%]","screen value ([2]; competitor about 120 nM (est. from x axis), parent: 58) [%]","screen value ([2]; competitor about 1200 nM (est. from x axis), parent: 17) [%]"
chain 2 ENSDDYDLMYVNLDNEIDNGLHPTEDPTPSASGQEHSEWDKLFIMLENSQMRERMLLQATDDVLRGELQRLREELGRLAESLARPCAPGAPAEARLTSALDELLQATRDAGRRLARMEGAEAQRPEEAGRALAAVLEELRQTRADLHAVQGWATG [chain 2 C30S C32S],0.14 O.D. (450nm),0.5 O.D. (450nm),1.1 O.D. (450nm),1.9 O.D. (450nm),2.2 O.D. (450nm),,,,,
chain 2 ENSDDYDLMYVNLDNEIDNGLHPTEDPTPSASGQEHSEWDKLFIMLENSQMRERMLLQATDDVLRGELQRLREELGRLAESLARPSAPGAPAEARLTSALDELLQATRDAGRRLARMEGAEAQRPEEAGRALAAVLEELRQTRADLHAVQGWATG [chain 2 C30S C32S C86S],0.31 O.D. (450nm),0.91 O.D. (450nm),1.7 O.D. (450nm),2.2 O.D. (450nm),2.2 O.D. (450nm),,,,,
chain 2 ENSDDYDLMYVNLDNEIDNGLHPTEDPTPCACGQEHSEWDKLFIMLENSQMRERMLLQATDDVLRGELQRLREELGRLAESLARPSAPGAPAEARLTSALDELLQATRDAGRRLARMEGAEAQRPEEAGRALAAVLEELRQTRADLHAVQGWATG [chain 2 C86S],0.3 O.D. (450nm),0.91 O.D. (450nm),1.6 O.D. (450nm),2.2 O.D. (450nm),2.3 O.D. (450nm),,,,,
chain 1 ENSDDYDLMYVNLDNEIDNGLHPTEDPTPSASGQEHSEWDKLFIMLENSQMRERMLLQATDDVLRGELQRLREELGRLAESLARPSAPGAPAEARLTSALDELLQATRDAGRRLARMEGAEAQRPEEAGRALAAVLEELRQTRADLHAVQGWATG [chain 1 C30S C32S C86S],,,,,,97,93,84,64,29
